Reference: patent US20080003218A1 (Genentech, published 2008)
Read-outs that look alike come from different tables or passages of the source.

Key:
[1] = target: IgE bound to FcεRI on human peripheral blood basophils (human, UniProt P01854 1-546; P12319 26-257); experiment: cell-based or functional assay
[2] = target: membrane IgE on U266B1 cells (human, UniProt P01854 1-546); experiment: FACS on membrane IgE+ U266B1 cells
[3] = target: T1, human IgE (human, UniProt P01854 1-546); experiment: equilibrium binding (Scatchard), 125I-IgE
T1 sequence (P01854 whole entry): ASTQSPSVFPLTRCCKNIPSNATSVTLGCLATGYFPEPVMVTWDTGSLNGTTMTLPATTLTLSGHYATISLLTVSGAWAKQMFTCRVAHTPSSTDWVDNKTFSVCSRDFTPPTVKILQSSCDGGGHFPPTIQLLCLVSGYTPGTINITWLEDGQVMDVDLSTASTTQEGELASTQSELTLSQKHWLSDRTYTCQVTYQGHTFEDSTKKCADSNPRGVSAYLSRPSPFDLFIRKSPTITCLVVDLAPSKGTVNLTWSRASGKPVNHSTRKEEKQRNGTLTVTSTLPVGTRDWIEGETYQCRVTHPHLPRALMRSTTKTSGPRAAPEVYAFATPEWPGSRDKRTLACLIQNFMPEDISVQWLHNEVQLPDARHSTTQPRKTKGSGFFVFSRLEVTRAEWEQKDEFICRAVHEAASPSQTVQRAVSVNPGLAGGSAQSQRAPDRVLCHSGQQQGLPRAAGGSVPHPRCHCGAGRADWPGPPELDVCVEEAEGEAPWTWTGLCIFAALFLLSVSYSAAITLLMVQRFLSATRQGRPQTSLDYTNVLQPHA

[4] = target: T1, human IgE; experiment: soluble receptor assay, biotin-IgE binding to coated FcεRI α-chain IgG chimera
[5] = target: T1, human IgE; experiment: as above; remark: listed apart in the source

Sequence of membrane IgE on U266B1 cells (P01854 whole entry, one chain of several): as the sequence (P01854 whole entry) above
Sequence of IgE bound to FcεRI on human peripheral blood basophils (P01854 whole entry, chain 1 of 2): as the sequence (P01854 whole entry) above
Sequence of IgE bound to FcεRI on human peripheral blood basophils (P12319 26-257, chain 2 of 2): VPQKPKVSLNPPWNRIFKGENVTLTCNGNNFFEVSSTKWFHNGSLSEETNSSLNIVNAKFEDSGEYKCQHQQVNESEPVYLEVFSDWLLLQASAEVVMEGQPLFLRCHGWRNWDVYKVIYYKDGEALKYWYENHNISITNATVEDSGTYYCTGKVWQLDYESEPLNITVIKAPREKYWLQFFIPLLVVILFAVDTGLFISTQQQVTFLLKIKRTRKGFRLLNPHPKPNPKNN

PBL histamine release (EC50) [1]: > 100 µg/mL
EC50 [2]: 0.15 µg/mL
Kd [3]: 30 nM
IC50 [4]: 0.179 µg/mL
ratio F(ab)-X/F(ab)-2 [4]: 0.03 ratio
ratio F(ab)-X/MaE11 [4]: 1 ratio
IC50 [5]: 0.449 µg/mL
ratio Variant X/IgG1-2 [5]: 0.06 ratio
ratio Variant X/MaE11 [5]: 1 ratio
B1: murine anti-human IgE monoclonal antibody MaE11 (antibody, V domains shown)
VH: DVQLQESGPGLVKPSQSLSLACSVTGYSITSGYSWNWIRQFPGNKLEWMGSITYDGSSNYNPSLKNRISVTRDTSQNQFFLKLNSATAEDTATYYCARGSHYFGHWHFAVWGAGTTVTVSS
VL: DIQLTQSPASLAVSLGQRATISCKASQSVDYDGDSYMNWYQQKPGQPPILLIYAASYLGSEIPARFSGSGSGTDFTLNIHPVEEEDAATFYCQQSHEDPYTFGAGTKLEIK
notes: Murine IgG1; immunogen U266 IgE; also called murine mAb MaE11
